Assay results published in patent US20220275059A1 (HARBOUR ANTIBODIES, published 2022).
Changes are numbered by the printed parent chain. Values joined by “and” are separate entries in the source; they are usually repeats but may differ in a detail not shown here. Equal entries are not always repeated.

B1: 1.2g5 (antibody, V domains shown)
VH: QVQLVQSGAEVKKPGSSVKVSCKASGGTFSTYAISWVRQAPGQGLEWMGGIIPIFGTANYAQKFQGRVTIIADKSTNTAYMDLSSLRSEDTAVYYCAREGNLGYDVVTGYSYFVYWGQGTLVTVSS
VL: EIVLTQSPGTLSLSPGERATLSCRASQSVSSSYLAWYQQKPDQVPRLLIYGTSSRATGIPDRFSGSGSGTDFTLTISRLEPEDFAVYYCQQYGRSLTFGGGTKVEIKR
B2: 5.2b7 (antibody, V domains shown)
VH: QVQLVESGGGVVQPGRSLRLSCAASGFTFSSDGMHWVRQAPGKGLEWVAVIWFDGSNKYYADSVKGRFTISRDNSKNTMYLQMNSLRAEDTAVYYCTRDRGITMGRGRYYYYYGMDVWGQGTTVTVSS
VL: EIVMTQSPATLSVSPGERATLSCRASQSVGSNLAWYQQKPGQAPRLLIYGASTRATGIPARFSGSGSGTEFTLTISSLQSEDFAVYYCQQYNNWPLTFGGGTKVEMKR
B3: 5.5e11 (antibody, V domains shown)
VH: QVQLVQSGAEVKKPGSSVKISCKASGGTFSTHAFTWVRQAPGQGLEWIGRIIPIFDTPKYAQKFQGRVTIAADISTSTVFMELSSLRSEDTAVFYCAREGYYISGSYRDAFDIWGQGTMVTVSS
VL: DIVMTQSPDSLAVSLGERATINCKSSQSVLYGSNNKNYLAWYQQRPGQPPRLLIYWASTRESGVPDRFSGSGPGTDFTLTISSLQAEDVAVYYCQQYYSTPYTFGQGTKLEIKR
B4: 1.6f9 (antibody, V domains shown)
VH: QVQLVQSGAEVKKPGSSVKVSCKASGGAFSAYVITWVRQAPGQGLEWMGGIIPVFGTAHYAQKFQGRVTITADKSTSTAFMELSSLRSEDTAVYYCAREGDIEVVLAGRGYFDYWGQGTLVTVSS
VL: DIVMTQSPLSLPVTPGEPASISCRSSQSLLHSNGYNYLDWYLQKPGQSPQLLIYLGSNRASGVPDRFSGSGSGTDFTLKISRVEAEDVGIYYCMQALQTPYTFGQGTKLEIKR
B5: 7.7h8 (antibody, V domains shown)
VH: QVQLVESGGGVVQTGRSLRLSCAASGFTFSAYAMHWVRQAPGKGLEWVTFIGYEESNKYHADSVKGRFTISRDNSKNTLYLQMNSLRAEDTAVYYCARDRGISVAATWDYYYYYGMDVWGQGTTVTVSS
VL: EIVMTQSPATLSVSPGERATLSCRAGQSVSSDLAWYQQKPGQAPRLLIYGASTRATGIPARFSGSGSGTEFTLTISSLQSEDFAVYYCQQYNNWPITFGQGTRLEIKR
B6: 1.3g2 (antibody, V domains shown)
VH: B1 VH
VL: B1 VL
B7: 7.5d3 (antibody, V domains shown)
VH: QVQLVESGGGVVQPGRSLRLSCAATGFTFSYYGMHWVRQAPGKGLEWVAVIWFDGTNIYYADSVRGRFTISRDNSKNTLYLQMNSLRAEDSAVYYCARDRRSSDWYVVFDYWGQGTLVTVSS
VL: DIQLTQSPSFLSASVGDRVTITCRASQGISSYLAWYQQKPGKAPKLLIYAASTLQSGVPSRFSGSGSGTEFTLTISSLQPEDFATYYCQQLNSYPWTFGQGTKVEIKR
B8: 7.3a9 (antibody, V domains shown)
VH: B2 VH with T28N, F53Y, S56R, S75T, M79L, T97A, R108P
VL: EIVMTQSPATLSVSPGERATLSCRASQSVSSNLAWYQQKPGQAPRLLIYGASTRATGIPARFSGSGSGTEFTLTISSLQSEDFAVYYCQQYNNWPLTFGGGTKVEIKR
B9: 7.6c11 (antibody, V domains shown)
VH: B2 VH with F53Y, N57S, K58E, A61G, M79L, T97A, R108V
VL: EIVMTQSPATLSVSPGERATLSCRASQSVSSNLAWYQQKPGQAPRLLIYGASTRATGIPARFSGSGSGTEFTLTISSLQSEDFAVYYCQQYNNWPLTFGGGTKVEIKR
B10: 1.10e9 (antibody, V domains shown)
VH: QVQLQQSGPGLVKPSQTLSLTCAISGDSVSSNSAAWNWIRQSPSRGLEWLGRTYYRSKWYNDYAVSVKSRITINPNTSKNQFSLQLNPVTPEDTAVYFCAREWFGEGYFDLWGRGTLVTVSS
VL: EIVMTQSPATLSVSPGESATLSCRASQTIYSNLAWYQRKPGQAPRLLIYRASTRATGIPARFSGSGSGTEFTLTISSLQSEDFAVYCCQQFNNWPYTFGQGTKLEIKR
B11: 7.9g10 (antibody, V domains shown)
VH: QVQLVQSGAEVKKPGSSVKVSCKASGGTFSSYAISWVRQAPGQGLEWMGGIIPIFGTANYAQKFQGRVTITADKSTNTAYMELSSLRSEDTAVYYCAREDITMVRGVITNYWYFDLWGRGTLVTVSS
VL: DIQMTQSPSSLSASVGDRVTITCRASQDISNYLAWYQQKPGKVPKLLIYAASTLQSGVPSRFSGSGSGTDFTLTISSLQPEDVATYYCQKSNNAPLTFGGGTKVEIKR
B12: 2.9d7 (antibody, V domains shown)
VH: QRKLVESGGGVVQPGRSLRLSCAVSGLIFSNYGMHWVRQAPGKGLEWVAVIWYDGSNTYYTDSVKGRFTISRDNSKNTLYLQMNSLRAEDTAVYYCARDRGMTAPGPGTYYYFYGMDVWGQGTTVTVSS
VL: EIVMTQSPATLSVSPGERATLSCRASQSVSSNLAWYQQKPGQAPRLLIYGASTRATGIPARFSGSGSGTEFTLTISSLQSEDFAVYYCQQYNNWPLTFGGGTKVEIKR
B13: 7.9c10 (antibody, V domains shown)
VH: QVQLVESGGDVVQPGRSLRLSCAASGITFSNYGMHWVRQAPGKGLEWVAVIWYDGSNKYYADSVKGRFTISRDNSKNTLYLQMNSLRAEDTAVYYCARDRGMTGTTWEYYYYYGMDVWGQGTTVTVSS
VL: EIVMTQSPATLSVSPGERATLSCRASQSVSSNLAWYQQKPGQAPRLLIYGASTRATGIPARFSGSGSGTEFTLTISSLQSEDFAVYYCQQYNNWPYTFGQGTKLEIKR
B14: 1.6e1 (antibody, V domains shown)
VH: B4 VH with V33A, T35S, V54I, H59N, K74T, F80Y, G108A, Y111F
VL: B11 VL with D28G, S91Y, N93S, L96W, G100Q
B15: 5.11h8 (antibody, V domains shown)
VH: B4 VH with V33A, T35D, V54I, F64L, F80Y, I102S, E103G, V104L, G108A, Y111F
VL: B11 VL with D28G, S91Y, N93S, L96W, G100Q
B16: 1.6c2 (antibody, V domains shown)
VH: B4 VH with A9T, V33A, V54I
VL: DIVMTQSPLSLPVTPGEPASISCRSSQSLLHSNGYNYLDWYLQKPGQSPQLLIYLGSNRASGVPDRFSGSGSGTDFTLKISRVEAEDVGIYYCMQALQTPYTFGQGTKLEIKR
B17: 4.2c3 (antibody, V domains shown)
VH: QVQLVESGGGVVQPGRSLRLSCTASGFTFSGYGMHWVRQAPGKGLEWVAIIWYDGSNTYYADSAKGRFTISRDNSKNTLYLQMNSLRVEDTAVYYCARDRGISVAALWKYYYYHGLDVWGQGTTVTVSS
VL: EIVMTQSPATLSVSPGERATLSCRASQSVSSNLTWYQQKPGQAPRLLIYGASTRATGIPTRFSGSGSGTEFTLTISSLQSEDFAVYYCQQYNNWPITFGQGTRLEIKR
B18: 4.9f12 (antibody, V domains shown)
VH: B17 VH with R16M, G33A, G42V, T58K, A64V, V88A, V104E, L107K, H114Y, L116M
VL: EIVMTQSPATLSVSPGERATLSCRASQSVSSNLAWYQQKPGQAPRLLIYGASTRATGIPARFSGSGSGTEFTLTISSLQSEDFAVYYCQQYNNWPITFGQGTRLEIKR
B19: 7.7f3 (antibody, V domains shown)
VH: B17 VH with A61T, N77D, V125T
VL: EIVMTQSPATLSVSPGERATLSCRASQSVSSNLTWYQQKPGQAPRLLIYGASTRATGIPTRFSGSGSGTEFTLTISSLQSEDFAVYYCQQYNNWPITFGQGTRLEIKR
B20: 4.7a6 (antibody, V domains shown)
VH: B17 VH with G33A, G42V, T58K, A64V, V88A, V104E, L107K, H114Y, L116M
VL: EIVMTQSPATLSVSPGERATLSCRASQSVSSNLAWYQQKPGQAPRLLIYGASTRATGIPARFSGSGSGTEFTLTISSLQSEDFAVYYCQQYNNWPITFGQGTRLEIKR
B21: 1.3h2 (antibody, V domains shown)
VH: QVQLVESGGGVVQPGRSLRLSCAASGFTFSRYGMHWVRQAPGKGLQWVAFIWYDGSNKYYADAVKVRFTISRDNSKNTLYLQMNSLRAEDTAVYYCATEGDYYGSGSYSRAEYFQEWGQGTLVTVSS
VL: B2 VL with G30S, S31I, G50D, A51T, T53A, L96F, G100P, E105D, M106I
B22: 7.2h5 (antibody, V domains shown)
VH: QVQLVQSGAEVKKPGSSVKVSCKASGGTFSSYAISWVRQAPGQGLEWMGGIIPIFGTVKNAQKFQGRVTITADKSTGTAYMELSSLRSEDTAVYYCARDHYYDSNDYYWYFDLWGRGTLVTVSS
VL: B2 VL with G30S, Q38K, A55V, M106I
B23: 7.9g1 (antibody, V domains shown)
VH: QVQLVESGGGVVQPGRSLRLSCAASGFTFSTYAMHWVRQAPGKGLEWVAVIWYDGSNKYYADSVKGRLTISRDNSKNTLFLQMNSLRAEDTAVYYCARDRGITTTDTGYYYYYYGLDIWGQGTTVTVSS
VL: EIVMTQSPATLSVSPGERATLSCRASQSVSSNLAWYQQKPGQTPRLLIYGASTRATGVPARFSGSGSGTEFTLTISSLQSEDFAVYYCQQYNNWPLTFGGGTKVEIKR
B24: 1.17f10 (antibody, V domains shown)
VH: QVQLVESGGGVVQPGRSLRLSCAASGFTFSKYGMHWVRQAPGKGLEWVANIGYDGSDKYYADSVKGRFTISRDNSKNMLYLQMNSLRAEDTAVYFCARGGWIDDYYYGLDVWGQGTTVTVSS
VL: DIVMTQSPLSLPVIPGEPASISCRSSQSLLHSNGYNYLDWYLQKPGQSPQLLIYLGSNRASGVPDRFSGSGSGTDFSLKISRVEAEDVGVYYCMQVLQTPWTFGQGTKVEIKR

Each binder was assayed against T1, MERS-S on pseudotyped VSV particles (MERS-S carrying a 16-a.a. cytoplasmic tail truncation) (MERS-CoV, UniProt K9N5Q8 18-1337) (assay: cell-based or functional assay).

Point of comparison: B1, “IC50, neutralization of MERS-S pseudovirus infectivity (H2L2)” value ~0.62 ng/mL. Against it:
- B2 — within 1.5-fold, ~0.81 ng/mL
- B3 — 2.7-fold higher, ~1.7 ng/mL
- B4 — 1.6-fold lower, ~0.38 ng/mL

Point of comparison: B4, “IC50, neutralization of MERS-S pseudovirus infectivity (human IgG1)” value ~19 ng/mL. Against it:
- B1 — 2.7-fold lower, ~7 ng/mL

Target: T1, MERS-S on pseudotyped VSV particles …
Test: cell-based or functional assay
Remark: another data set of the same source

With B1 the “IC50, neutralisation of MERS-S VSV pseudovirus on Vero cells” value was 0.002 µg/ml and 0.013 nM.
For B4, the “IC50, neutralisation of MERS-S VSV pseudovirus on Vero cells” value was 0.006 µg/ml and 0.04 nM.

Each binder was assayed against T2, MERS-S1^A domain (MERS-CoV EMC isolate, UniProt K9N5Q8 19-357) (assay: ELISA on coated MERS-S1^A, OD450 [D]).
T2 sequence: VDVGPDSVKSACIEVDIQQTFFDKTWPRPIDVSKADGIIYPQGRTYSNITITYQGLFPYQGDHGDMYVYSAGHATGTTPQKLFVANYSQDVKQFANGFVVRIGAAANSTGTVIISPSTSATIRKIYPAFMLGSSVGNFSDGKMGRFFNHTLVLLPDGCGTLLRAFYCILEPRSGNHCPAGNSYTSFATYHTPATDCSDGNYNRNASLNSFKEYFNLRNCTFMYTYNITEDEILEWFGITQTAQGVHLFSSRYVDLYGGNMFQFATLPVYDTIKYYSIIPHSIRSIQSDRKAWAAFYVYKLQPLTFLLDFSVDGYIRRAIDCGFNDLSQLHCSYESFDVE

B1: no binding (tested: about 5x10^5 ng/ml).
B4: no binding (tested: about 5x10^5 ng/ml).

The binders below were run against MERS-CoV S S1 subunit (MERS-S1) (MERS-CoV EMC isolate, UniProt K9N5Q8 19-748) (assay: ForteBio Octet kinetic measurement (FIG. 3A)).

Point of comparison: B7, Kd ~6 nM. Against it:
- B5 — 11-fold lower, ~0.54 nM
- B1 — 74-fold lower, ~0.081 nM
- B6 — 5.5-fold lower, ~1.1 nM
- B8 — 14-fold lower, ~0.43 nM
- B9 — 15-fold lower, ~0.4 nM
- B2 — 17-fold lower, ~0.36 nM
- B10 — 14-fold lower, ~0.44 nM
- B3 — 20-fold lower, ~0.3 nM
- B11 — 30-fold lower, ~0.2 nM
- B12 — 17-fold lower, ~0.35 nM
- B13 — 55-fold lower, ~0.11 nM
- B4 — 11-fold lower, ~0.53 nM
- B14 — 55-fold lower, ~0.11 nM
- B15 — 8.8-fold lower, ~0.68 nM
- B16 — 7-fold lower, ~0.86 nM
- B17 — 50-fold lower, ~0.12 nM
- B18 — 46-fold lower, ~0.13 nM
- B19 — 50-fold lower, ~0.12 nM
- B20 — 46-fold lower, ~0.13 nM
- B21 — 3.2-fold lower, ~1.9 nM
- B22 — 17-fold lower, ~0.36 nM
- B23 — 29-fold lower, ~0.21 nM

What follows are binders tested against SARS-CoV spike protein (SARS-CoV, UniProt P59594 15-1182) (assay: ELISA on SARS Secto).

B24: no binding (tested: 25.00 (no unit printed)).
